Numbering of substitutions follows the chain as printed. In names and notes the source's numbering stands. Values belong to the binder of their own block, whether it stands above or below them.
Columns and labels:
cynomolgus CD19 = target: T1, cynomolgus CD19 (cynomolgus (Macaca fascicularis), UniProt A0A2K5W8L9 20-557); experiment: flow cytometry on monkey blood lymphocytes (method for the murine antibody not detailed)
T1 construct: whole, on cells; also called CD19 from cynomolgus monkey (Macaca fascicularis)
T1 sequence: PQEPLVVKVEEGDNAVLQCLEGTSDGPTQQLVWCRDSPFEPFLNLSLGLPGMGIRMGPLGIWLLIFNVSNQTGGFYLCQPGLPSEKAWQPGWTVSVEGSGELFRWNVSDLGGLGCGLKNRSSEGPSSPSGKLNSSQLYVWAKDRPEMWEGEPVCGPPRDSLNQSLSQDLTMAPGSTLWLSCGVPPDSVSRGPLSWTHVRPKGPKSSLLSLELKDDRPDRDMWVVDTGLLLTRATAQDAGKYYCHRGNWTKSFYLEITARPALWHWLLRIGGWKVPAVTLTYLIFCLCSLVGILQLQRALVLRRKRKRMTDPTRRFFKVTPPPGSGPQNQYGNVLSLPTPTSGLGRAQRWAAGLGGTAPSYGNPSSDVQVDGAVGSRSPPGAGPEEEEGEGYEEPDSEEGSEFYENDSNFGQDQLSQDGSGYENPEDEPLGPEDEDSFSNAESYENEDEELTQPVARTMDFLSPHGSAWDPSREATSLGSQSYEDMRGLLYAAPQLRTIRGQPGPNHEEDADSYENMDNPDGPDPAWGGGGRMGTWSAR

rhesus CD19 = target: T2, rhesus CD19 (rhesus (Macaca mulatta), UniProt F7F486 20-557); experiment: as above
T2 construct: whole, on cells; also called CD19 from rhesus monkey (Macaca mulatta)
T2 sequence: T1 sequence

[1] = target: T3, human V158 FcγRIIIa (FcγR-His) (human, UniProt P08637 17-208, limits assumed); experiment: Biacore SPR; IgG captured on protein A/G, FcγR-His injected; 1:1 model
T3 construct: Soluble His-tagged receptor injected as analyte in Biacore; not shown: His tag ('FcγR-His')
Protocol: (§1) Briefly, protein A/G was coupled to a flow cell of a CM5 chip. IgG was first diluted to 25 nM and immobilized to protein A/G channel to ˜1000 RUs. FcγR-His was serially diluted and injected at […] for 2 min followed by dissociation for 3 min. To determine KD the resulting sensorgrams are “group-fitted” using the 1:1 interaction model available in BlAevaluation software.

FcγRIIa - H131 = target: T4, FcγRIIa - H131 (human, UniProt P12318); experiment: Biacore SPR: IgG captured on protein A/G (CM5 chip), FcγR-His injected; KD from 1:1 group fit, plotted as -log(KD)
T4 construct: soluble His-tagged receptor; also called H131 FcγRIIa (FcγR-His)
T4 sequence (receptor chain, looked up): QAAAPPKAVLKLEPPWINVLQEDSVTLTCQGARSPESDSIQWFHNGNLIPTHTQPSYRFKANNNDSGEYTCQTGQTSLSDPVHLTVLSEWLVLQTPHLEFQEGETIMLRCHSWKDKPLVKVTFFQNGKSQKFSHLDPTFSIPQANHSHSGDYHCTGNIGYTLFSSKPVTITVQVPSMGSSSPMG
Protocol: as §1

FcγRIIa - R131 = target: T5, FcγRIIa - R131 (human, UniProt P12318); experiment: as above
T5 construct: soluble His-tagged receptor; also called R131 FcγRIIa (FcγR-His)
T5 sequence (receptor chain, looked up): T4 sequence (receptor chain, looked up) with H134R
Protocol: as §1

[2] = target: T6, human F158 FcγRIIIa (FcγR-His) (human, UniProt P08637 17-208, limits assumed); experiment: Biacore SPR; IgG captured on protein A/G, FcγR-His injected; 1:1 model
T6 construct: Soluble His-tagged receptor injected as analyte in Biacore; not shown: His tag ('FcγR-His')
Protocol: as §1

[3] = target: T3, human V158 FcγRIIIa (FcγR-His); experiment: Biacore SPR; IgG captured on protein A/G, FcγR-His injected; reference is 4G7 IgG1 (WT)
Protocol: as §1

human CD19 [4] = target: T7, human CD19 (human, UniProt P15391 20-556); experiment: DELFIA time-resolved fluorometry competition on Raji cells; competitor tracer is Eu-labeled anti-CD19 (H0L0)
T7 construct: also called B-cell surface antigen B4; B-cell antigen CD19
T7 sequence: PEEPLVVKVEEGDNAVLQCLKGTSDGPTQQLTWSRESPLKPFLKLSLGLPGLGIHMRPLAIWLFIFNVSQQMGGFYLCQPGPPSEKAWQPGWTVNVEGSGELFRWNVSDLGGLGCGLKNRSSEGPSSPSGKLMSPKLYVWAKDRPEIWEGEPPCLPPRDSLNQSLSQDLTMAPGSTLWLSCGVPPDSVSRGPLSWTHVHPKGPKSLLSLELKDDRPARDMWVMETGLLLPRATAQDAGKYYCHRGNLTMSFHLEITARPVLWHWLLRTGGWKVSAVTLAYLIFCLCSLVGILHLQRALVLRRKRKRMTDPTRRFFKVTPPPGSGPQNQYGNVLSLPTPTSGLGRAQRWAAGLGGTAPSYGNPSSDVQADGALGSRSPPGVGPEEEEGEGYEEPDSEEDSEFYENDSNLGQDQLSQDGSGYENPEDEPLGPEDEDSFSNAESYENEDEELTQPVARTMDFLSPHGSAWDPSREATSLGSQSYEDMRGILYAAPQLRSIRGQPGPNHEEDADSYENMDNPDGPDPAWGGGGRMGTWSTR
Protocol: Affinities of enhanced effector function anti-CD19 variants were determined by using the DELFIA® system (PerkinElmer Life Sciences) which is based on Time-Resolved Fluorometry (TRF). […] The assay is essentially applied as a competition assay for screening anti-CD19 antibodies of different affinities.

human CD19 [5] = target: T7, human CD19; experiment: flow cytometry, binding to CD19 on RS4;11 cells, MFI against Log[Ab], nM

T3 sequence (P08637 17-208 F176V limits assumed): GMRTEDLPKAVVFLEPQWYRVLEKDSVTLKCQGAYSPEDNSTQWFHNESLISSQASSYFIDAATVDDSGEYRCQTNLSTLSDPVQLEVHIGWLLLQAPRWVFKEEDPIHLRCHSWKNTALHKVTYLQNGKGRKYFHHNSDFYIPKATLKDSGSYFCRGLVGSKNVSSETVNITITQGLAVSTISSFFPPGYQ
T6 sequence (P08637 17-208 limits assumed): as the sequence (P08637 17-208 F176V limits assumed) above, with V160F counted along it

binding result (cynomolgus CD19): no binding
binding result (rhesus CD19): no binding
B1: parental murine antibody of the anti-CD19 (4G7) (antibody, V domains shown)
VH: EVQLQQSGPELIKPGASVKMSCKASGYTFTSYVMHWVKQKPGQGLEWIGYINPYNDGTKYNEKFKGKATLTSDKSSSTAYMELSSLTSEDSAVYYCARGTYYYGSRVFDYWGQGTTLTVSS
VL: DIVMTQAAPSIPVTPGESVSISCRSSKSLLNSNGNTYLYWFLQRPGQSPQLLIYRMSNLASGVPDRFSGSGSGTAFTLRISRVEAEDVGVYYCMQHLEYPFTFGAGTKLELK
notes: also called its parental murine antibody

Kd [1]: ~4.7 nM
Kd [2]: ~16.7 nM
affinity enhancement relative to WT [3]: ~50 fold
EC50 (human CD19 [4]): 1.2 nM
binding result (FcγRIIa - H131): binds
binding result (FcγRIIa - R131): binds
B3: 4G7 Hybrid S239D/I332E (murine 4G7 H0/L0 variable regions, hybrid IgG1/IgG2 constant region with S239D/I332E) (antibody)
heavy: EVQLQQSGPELIKPGASVKMSCKASGYTFTSYVMHWVKQKPGQGLEWIGYINPYNDGTKYNEKFKGKATLTSDKSSSTAYMELSSLTSEDSAVYYCARGTYYYGSRVFDYWGQGTTLTVSSASTKGPSVFPLAPSSKSTSGGTAALGCLVKDYFPEPVTVSWNSGALTSGVHTFPAVLQSSGLYSLSSVVTVPSSSLGTQTYICNVNHKPSNTKVDKKVEPKSCDKTHTCPPCPAPELLGGPDVFLFPPKPKDTLMISRTPEVTCVVVDVSHEDPEVQFNWYVDGVEVHNAKTKPREEQFNSTFRVVSVLTVVHQDWLNGKEYKCKVSNKALPAPEEKTISKTKGQPREPQVYTLPPSREEMTKNQVSLTCLVKGFYPSDIAVEWESNGQPENNYKTTPPMLDSDGSFFLYSKLTVDKSRWQQGNVFSCSVMHEALHNHYTQKSLSLSPGK
light: DIVMTQAAPSIPVTPGESVSISCRSSKSLLNSNGNTYLYWFLQRPGQSPQLLIYRMSNLASGVPDRFSGSGSGTAFTLRISRVEAEDVGVYYCMQHLEYPFTFGAGTKLELKRTVAAPSVFIFPPSDEQLKSGTASVVCLLNNFYPREAKVQWKVDNALQSGNSQESVTEQDSKDSTYSLSSTLTLSKADYEKHKVYACEVTHQGLSSPVTKSFNRGEC
notes: also called effector function enhanced anti-CD19; enhanced effector function anti-CD19; copies: 2 + 2

More lines, now with the values behind:

B2: 4G7 IgG1 (chimeric: murine 4G7 H0/L0 variable regions, human IgG1 and kappa constant regions) (antibody)
heavy: not shown
light: B3 light
notes: also called 4G7 IgG1 antibody; WT IgG1 antibody; copies: 2 + 2
Kd [1]: ~240 nM
binding result (FcγRIIa - H131): binds
binding result (FcγRIIa - R131): binds

B4: 4G7 H1L1 Hybrid S239D/I332E (antibody, human IgG1, kappa, V domains shown)
VH: EVQLVESGGGLVKPGGSLKLSCAASGYTFTSYVMHWVRQAPGKGLEWIGYINPYNDGTKYNEKFQGRVTISSDKSISTAYMELSSLRSEDTAMYYCARGTYYYGSRVFDYWGQGTLVTVSS
VL: DIVMTQSPATLSLSPGERATLSCRSSKSLLNSNGNTYLYWFQQKPGQSPQLLIYRMSNLASGVPDRFSGSGSGTEFTLTISSLEPEDFAVYYCMQHLEYPFTFGAGTKLEIKR
notes: also called H1L1 mAb
EC50 (read off the curve) (human CD19 [5]): ~6 nM

— patent US20100272723A1 (Xencor, published 2010)
